From patent publication US20080058276A1, “ALZHEIMER'S DISEASE THERAPEUTICS BASED ON PIN-1 CATALYZED CONFORMATIONAL CHANGES IN PHOSPHORYLATED AMYLOID PRECURSOR PROTEIN” (CORNELL RESEARCH FOUNDATION, INC., priority 2006, published 2008)
Bridge positions count the residues as written; N and C are the ends. Square brackets hold non-standard residues; d marks the D form. Ends that are not written are not given here. pT = C[C@@H](OP(=O)(O)O)[C@H](N)C(=O)O; resin = not defined here

Tests used:
[1] = target: T1, Pin1 WW domain (Homo sapiens, UniProt Q13526); experiment: Competitive GST-WW pulldown of 32P-AICD; assay type: binding; settings: increasing amounts of phosphopeptide
T1 construct: made in house; host or cells: bacteria
T1 sequence (Q13526 5-39 limits assumed): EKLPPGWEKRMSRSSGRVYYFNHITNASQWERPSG
Procedure: For competitive binding assays, synthetic peptides, APPtide (EVDAAVp[…] (SEQ ID NO: 13), and its non-phosphorylated counterpart, were synthesized and purchased from Merck Co. The accuracy and purity were identified by mass spectroscopy. APPtide was dissolved in the binding buffer described in Lu et al., “A Function of WW Domains as Phosphoserine- or Phosphothreonine-binding Modules,” Science 283:1325-1328 (1999), which is hereby incorporated by reference in its entirety, and added into the GST pull down reaction for the competitive binding assay (Lu et al., “A Function of WW Domains as Phosphoserine- or Phosphothreonine-binding Modules,” Science 283:1325-1328 (1999), which is hereby incorporated by reference in its entirety).
To identify the Pin1-binding site in APP, alanine was substituted for Thr668, the only Thr/Ser-Pro motif in the APP intracellular domain (“AICD”). […] AICD, but not AICD^T668A, was phosphorylated by Cdc2 (Suzuki et al., “Cell Cycle-dependent Regulation of the Phosphorylation and Metabolism of the Alzheimer Amyloid Precursor Protein,” Embo J 13(5): 1114-22 (1994), which is hereby incorporated by reference in its entirety).

[2] = target: T2, pThr668-Pro motif in APP (21-residue phosphopeptide G659-Q679 of APP) (Homo sapiens, UniProt P05067); experiment: NMR (ROESY) analysis of Pin1-catalyzed cis/trans isomerization of the pThr668-Pro bond; assay type: biochemical
T2 construct: isomerization of the pThr668-Pro bond in a 21-residue phosphopeptide (G659-Q679 of APP); made in house; host or cells: peptide chemically synthesized; Pin1 recombinant (bacteria, as said in general terms)
Procedure: All experiments were recorded at 25° C. on a Varian Inova 600 MHz spectrometer with the ^1H carrier set on water. ROESY data sets were acquired with spectral widths of 6 kHz (8 kHz) in t1 (t2) and 640 (2048) complex data points, and were processed as described in Ramelot & Nicholson, “Phosphorylation-induced Structural Changes in the Amyloid Precursor Protein Cytoplasmic Tail Detected by NMR,” J Mol Biol 307(3):871-84 (2001), which is hereby incorporated by reference in its entirety. Peak intensities were obtained using Pipp (Garrett et al., “A Common-sense Approach to Peak-picking in 2-Dimensional, 3-Dimensional, and 4-Dimensional Spectra Using Automatic Computer-analysis of Contour Diagrams,” J Magn Reson 95:214-20 (1991), which is hereby incorporated by reference in its entirety), and curve fits and error analyses were performed using SigmaPlot (Systat Software, Inc.). […] Ict/Icc=kct^cat[exp(kextm)−1]/[ktc^catexp(kextm)+kct^cat] Itc/Itt=ktc^cat[exp(kextm)−1]/[kct^catexp(kextm)+ktc^cat] where kex=kct^cat+ktc^cat, and tm corresponds to the ROESY mixing time. The desired rate constants were extracted by recording ROESY spectra with different mixing times and fitting the intensity ratios obtained to the above equations. ^15N—^1H HSQC data sets were acquired with spectral widths of 1.4 kHz (10 kHz) in t1 (t2) and 512 (2048) complex data points, and were processed as described in Ramelot & Nicholson, “Phosphorylation-induced Structural Changes in the Amyloid Precursor Protein Cytoplasmic Tail Detected by NMR,” J Mol Biol 307(3):871-84 (2001), which is hereby incorporated by reference in its entirety.
In the ROESY spectrum, the intensities of exchange and diagonal peaks for a two-state isomerization reaction explicitly depend on the forward (“kct^cat”) and backward (“ktc^cat”) rate constants (FIG. 5B), and on the mixing time (“tm”).

[3] = system: CHO-APP cells; experiment: Total Aβ secretion (ELISA) after Pin1 overexpression in CHO-APP cells; assay type: cell-based, Chinese hamster; settings: asynchronous or mitotic cells
[4] = system: CHO cells; experiment: Total Aβ secretion (ELISA) after co-transfection of Pin1 and APP751 in CHO cells; assay type: cell-based, Chinese hamster; settings: Pin1 overexpression with APP751, asynchronous or mitotic cells
[5] = target: T3, APP (Homo sapiens, UniProt P05067, T743A); experiment: GST-Pin1 pulldown of APP and its mutants; assay type: binding; settings: expressed in mitotic cells
T3 construct: expressed in transfected cells; host or cells: N18 neuroblastoma cells transfected with HA-APP (from APP/pCMV)

[6] = linear sequence; cited from earlier work
[7] = NMR (2D 1H-1H TOCSY and 1D 31P) determination of cis and trans populations of phosphopeptide; assay type: physicochemical; settings: pThr-Pro bond, NMR on reaction mixture
Text: The cis conformation of the pThr-Pro motif in AICD is unique from the trans isomer in that it is stabilized by different hydrogen bonds, and it is more extended in backbone conformation, aside from the kink of the cis peptide bond (Ramelot & Nicholson, “Phosphorylation-induced Structural Changes in the Amyloid Precursor Protein Cytoplasmic Tail Detected by NMR,” J Mol Biol 307(3):871-84 (2001), which is hereby incorporated by reference in its entirety). It was hypothesized that the cis conformation could be stabilized by formation of a covalent bond between V667 NH and E670 COO— (hydrogen bonded in the NMR structure), thereby stabilizing the cis isomer relative to the trans. A 6-residue phosphopeptide corresponding to APP residues V667-R72 ([NH2]-V-pT-P-E-E-R-resin (SEQ ID NO: 1)) was commercially synthesized with an orthogonal blocking group on E4 (Tufts Core Facility), and sent on the resin. […] The spectra show two cis populations that most likely reflect different hydrogen bond geometries adopted in the cis isomer (Ramelot & Nicholson, “Phosphorylation-induced Structural Changes in the Amyloid Precursor Protein Cytoplasmic Tail Detected by NMR,” J Mol Biol 307(3):871-84 (2001), which is hereby incorporated by reference in its entirety).

[8] = target: WW domain of Pin1 (Homo sapiens, UniProt Q13526); experiment: 15N-1H HSQC titration of {15N}-WW with peptide; assay type: binding; settings: relative to linear pAICD
WW domain of Pin1, sequence (Q13526 5-39 limits assumed): as above
Procedure: The pThr668-Pro peptides were synthesized, purified, and analyzed as reported in (Ramelot & Nicholson, “Phosphorylation-induced Structural Changes in the Amyloid Precursor Protein Cytoplasmic Tail Detected by NMR,” J Mol Biol 307(3):871-84 (2001), which is hereby incorporated by reference in its entirety). […] For ^15N—^1H HSQC experiments, ^15N-E670-pT668 peptide was dissolved in the same buffer adjusted to pH 6.7, with subsequent addition of an equimolar amount of the WW domain (0.2 mM). All experiments were recorded at 25° C. on a Varian Inova 600 MHz spectrometer with the ^1H carrier set on water. ROESY data sets were acquired with spectral widths of 6 kHz (8 kHz) in t1 (t2) and 640 (2048) complex data points, and were processed as described in Ramelot & Nicholson, “Phosphorylation-induced Structural Changes in the Amyloid Precursor Protein Cytoplasmic Tail Detected by NMR,” J Mol Biol 307(3):871-84 (2001), which is hereby incorporated by reference in its entirety. […]
Natural abundance peptide (either the linear or cyclic pAICD peptide) was incrementally added to {^15N}-WW and peak shifts were monitored via ^15N—^1H HSQC spectra.

Substance: EVDAAVpTPEERHLS (SEQ ID NO: 13) (EVDAAV[pT]PEERHLS) [pThr668-containing APP peptide]
- competition of 32P-AICD binding to GST-WW [1]: effectively competed

Substance: Pin1: peptidyl-prolyl isomerase that specifically isomerizes pSer/Thr-Pro bonds; GenBank Accession No. U49070
- difference between kct^cat and ktc^cat rates [2]: 10 fold
- acceleration of pThr668-Pro isomerization rate over typical uncatalyzed isomerization rates for pThr-Pro peptides ([2]; 3 mM peptide, 0.05 mM Pin1, 25° C.): several orders of magnitude
- ROESY exchange cross peaks (E670-HN cis/trans) ([2]; catalytic amount of enzyme, 60:1 peptide:enzyme): exchange cross peaks were observed
- average lifetime of the cis isomeric state ([2]; in presence of Pin1): ~0.05 s
- average lifetime of the trans isomeric state ([2]; in presence of Pin1): ~0.5 s
- acceleration of isomerization of the phosphorylated Thr668-Pro motif in APP ([2]; visualized by NMR): over 1000 fold
- Aβ secretion [3]: significantly reduced
- Aβ secretion [4]: significantly reduced
- binding to APP^T668A mutant [5]: failed to bind

Substance: [NH2]-V-pT-P-E-E-R-resin (SEQ ID NO: 1) (H-V[pT]PEER-resin; not fully specified; printed as [NH2]-V-pT-P-E-E-R-resin; reading uncertain) [6-residue phosphopeptide, linear phosphopeptide corresponding to APP residues V667-R72]
- cis conformation [6]: 10%
- trans conformation [6]: 90%

Substance: cyclic pAICD: VpTPEER (SEQ ID NO: 1) phosphopeptide cyclized by covalent bond between V667 NH and E670 COO- (V[pT]PEER; lactam N-4)
- cis population [7]: ~30%
- trans population [7]: 70%
- WW domain peak shifts upon saturation with peptide [8]: smaller peak shifts
